From paper doi:10.1101/589515 (bioRxiv, 2019)

Target: the molecule itself
Test: cryo-EM structure

B1: human polycystin-2 (PC2), truncated construct Pro185 - Asp723 (domain or fragment, UniProt Q13563 185-723, looked up)
chain: PRVAWAERLVRGLRGLWGTRLMEESSTNREKYLKSVLRELVTYLLFLIVLCILTYGMMSSNVYYYTRMMSQLFLDTPVSKTEKTNFKTLSSMEDFWKFTEGSLLDGLYWKMQPSNQTEADNRSFIFYENLLLGVPRIRQLRVRNGSCSIPQDLRDEIKECYDVYSVSSEDRAPFGPRNGTAWIYTSEKDLNGSSHWGIIATYSGAGYYLDLSRTREETAAQVASLKKNVWLDRGTRATFIDFSVYNANINLFCVVRLLVEFPATGGVIPSWQFQPLKLIRYVTTFDFFLAACEIIFCFFIFYYVVEEILEIRIHKLHYFRSFWNCLDVVIVVLSVVAIGINIYRTSNVEVLLQFLEDQNTFPNFEHLAYWQIQFNNIAAVTVFFVWIKLFKFINFNRTMSQLSTTMSRCAKDLFGFAIMFFIIFLAYAQLAYLVFGTQVDDFSTFQECIFTQFRIILGDINFAEIEEANRVLGPIYFTTFVFFMFFILLNMFLAIINDTYSEVKSDLAQQKAEMELSDLIRKGYHKALVKLKLKKNTVD
With B1 the “stoichiometry N” value was 4.
